In patent US20250230211A1 (NANTCELL, published 2025) one finds Kd data, which are given here for one molecule.

One assay has as its target T1, murine CTLA4 (murine, UniProt P09793 36-161, limits assumed).
T1 construct: also called Mouse CTLA4
Put plainly: SPR, antibody captured by anti-human IgG Fc, analyte by OneStep injection at 40 nM and 20 nM. Here is the method:
(§1) Surface plasmon resonance (SPR) studies were conducted with the purified fusion proteins to assess their binding affinities to relevant targets. The SPR kinetic assay was performed by immobilizing rabbit α-human IgG Fc antibodies (Thermo) on a PCH sensor (Sartorius) as the capture molecule. All molecules of interest were then captured on the sensor surface by α-IgG1-Fc and Fc domain interaction. Binding kinetics against IL-2Rβ, human CTLA4, and murine CTLA4 were determined by OneStep injection at 40 nM and 20 nM of each analyte. […] The αCTLA4-scFv has higher affinity to CTLA4 than when the binding domain is in IgG form.

Another assay concerns the target T2, human CTLA4 (human, UniProt P16410 36-161).
T2 sequence (looked up): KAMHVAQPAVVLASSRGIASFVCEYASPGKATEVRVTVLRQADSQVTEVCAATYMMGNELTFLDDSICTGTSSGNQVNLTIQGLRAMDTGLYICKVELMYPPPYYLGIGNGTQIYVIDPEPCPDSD
The assay is described as above. Here is the method: as §1

B1: αCTLA4-7 (antibody, human IgG1, kappa, V domains shown)
VH: EVQLVESGGGLVQPGGSLRLSCAASGFTFTSYSMHWVRQAPGKGLEWVSGISGSGRSTSYADSVKGRFTISRDNSKNTLYLQMNSLRAEDTAVYYCARDLMAFNLVRAGGFDVWGQGTLVTVSS
VL: DIQMTQSPSSLSASVGDRVTITCQASQDISNYLNWYQQKPGKAPKLLIYDASNLETGVPSRFSGSGSGTDFTFTISSLQPEDIATYYCQQGDAWPWTFGQGTKVEIKR
What is called Kd is a measure of binding affinity in units of concentration. High values mean a looser complex, low ones a tighter complex. As for B1, the Kd with murine CTLA4 is 0.13 to 2.1 nM; in the assay with human CTLA4 it was 1.1 to 1.6 nM.
